Source: patent US20240043529A1, “METHODS AND COMPOSITIONS RELATED TO BCL2 AND BIM HETERODIMER ANTIBODIES” (Eutropics Pharmaceuticals, Inc., priority 2020, published 2024)

What was measured:
[1] = biological target: T1, GST_Bc1xL (Bc1xL monomer) (human, UniProt Q07817 1-209); test: ELISA, serially diluted hybridoma supernatant on glutathione plates
T1 construct: also called BclxL monomer; not shown: GST (glutathione S-transferase) fused at the N-terminus
Experimental: (§1) This class of heterodimer specific Bc12:Bim reactive monoclonal antibodies are otherwise known as “HSB2B”. […] As controls, reactivity with Bc1xL:Bim, Bc12 and Bc1xL monomers, and bovine serum albumin (BSA) were also screened against. To adhere the Bc1xL and Bc12 to the plates, each was expressed as a recombinant fusion protein with GST at the N-terminus (i.e. GST_Bc12 and GST_Bc1xL). Once adhered to the plate, incubations were either performed with a Bim peptide (which fits into the BH3-binding pocket of Bc12 family members), or PBS (thus retaining the monomeric confirmation). Hybridomas supernatants were subsequently incubated with the coated antigens and detected with HRP conjugated anti-mouse IgG. The reaction was developed with TMB substrate and stopped with sulphuric acid. Gluathione plate wells were scanned using a wavelength filter with an optical density of 450 nanometres (OD₄₅₀).

[2] = biological target: T2, bovine serum albumin (BSA) (bovine, UniProt P02769 25-607); test: as above
T2 construct: Control antigen
Experimental: as §1

[3] = biological target: Bc12:BIM heterodimer (Homo sapiens, UniProt P10415); test: ELISA reactivity with different Bc12 and Bc1_XL heterodimers; format: binding; settings: FIG. 8
Excerpt: (§2) All levels of reactivity are tabulated as percentage magnitudes of signal relative to those yielded with the Bc12:BIM heterodimer. […] 28A9 has low ABT199 cross-reactivity.

[4] = biological target: ABT199 in a heterodimer with Bc12 (Homo sapiens, UniProt P10415); test: as above; format: binding; settings: FIG. 8; signal relative to Bc12:BIM heterodimer
Excerpt: as §2

[5] = biological target: Bc12:Bim heterodimeric complex (Homo sapiens, UniProt P10415); test: ELISA of hybridoma supernatants on glutathione plates coated with GST_Bc12 complexed with Bim peptide; format: binding; settings: for antigen reactivity of hybridoma supernatants (OD450): FIG. 1, serially diluted supernatants, controls Bc1xL:Bim, Bc12 and Bc1xL monomers, BSA; for hybridoma supernatant reactivity among a more exhaustive range of antigens: FIG. 2, antigens include Mcl1 monomer and Mc11:Bim heterodimeric forms
Experimental: This class of heterodimer specific Bc12:Bim reactive monoclonal antibodies are otherwise known as “HSB2B”. […] As controls, reactivity with Bc1xL:Bim, Bc12 and Bc1xL monomers, and bovine serum albumin (BSA) were also screened against. To adhere the Bc1xL and Bc12 to the plates, each was expressed as a recombinant fusion protein with GST at the N-terminus (i.e. GST_Bc12 and GST_Bc1xL). Once adhered to the plate, incubations were either performed with a Bim peptide (which fits into the BH3-binding pocket of Bc12 family members), or PBS (thus retaining the monomeric confirmation). Hybridomas supernatants were subsequently incubated with the coated antigens and detected with HRP conjugated anti-mouse IgG. The reaction was developed with TMB substrate and stopped with sulphuric acid. Gluathione plate wells were scanned using a wavelength filter with an optical density of 450 nanometres (OD450).
As a GST fusion protein (GST_Mc11), HSB2B hybridoma supernatant reactivity was tested against the Mc11 monomeric form, or the heterodimeric forms (created by, either, incubation of Bim peptide (as for FIG. 1), or by covalently linking the Bim peptide to the GST_Mc11). As for FIG. 1, the HSB2B mAbs show specific reactivity with the epitopes induced following the complexing of Bc12 with Bim.

[6] = biological target: T3, GST_Bc12 (Bc12 monomer) (human, UniProt P10415 1-218, limits assumed); test: ELISA, serially diluted hybridoma supernatant on glutathione plates
T3 construct: also called Bcl2 monomer; not shown: GST (glutathione S-transferase) fused at the N-terminus
Experimental: as §1

[7] = tested on: breast cancer tissue; test: IHC on FFPE breast cancer tissue; settings: FIG. 6; biopsies of two breast cancer patients; three biopsy areas combined
Excerpt: The present anti-BC12/BINI antibodies are labelled “HSB2B” and a clone number (see Table A); “HSBXB” is an antibody against Bc1-x1/Bim and “HSMCB” is an antibody against MCL-1/BIM. Using an analogous staining method to that described in FIG. 5, serial sections of two different patients' breast cancer biopsies (“Breast Cancer Patient 1 & 2”) were stained at the same time, under the identical conditions for relative reactivity with HSB2B mAbs 2H3 and 10C10, HSMCB and HSBXB. Cytoplasmic staining levels of individual cells from three different biopsy areas for each patient biopsy were combined and plotted as dot/bar graphs. […] The acquisition of data following staining with different HSA classes is planned to be of clinical utility to determine the relative dependencies of different cancers on different Bc12 family members.

[8] = biological target: Bc12:BAX heterodimers (Homo sapiens, UniProt P10415); test: ELISA reactivity with different Bc12 and Bc1_XL heterodimers; format: binding; settings: FIG. 8; signal relative to Bc12:BIM heterodimer
Excerpt: as §2

[9] = tested on: small cell lung cancer tissue; test: IHC on FFPE small cell lung cancer tissue; settings: for cytoplasmic staining level (Mean Cytoplasmic OD) of tumor cells versus negative control: FIG. 4 (ii), four biopsy areas; for cytoplasmic staining level (Mean Cytoplasmic OD) of tumor cells versus negative control / cytoplasmic staining level of individual cells versus negative control: Mann Whitney ****p<0.001; for reactivity by IHC with small cell lung cancer tissue: FIG. 4, FFPE secondary (colon) tumor biopsy, anti-mouse IgG HRP, DAB; for cytoplasmic staining level of individual cells versus negative control: FIG. 5 (ii), three biopsy areas combined
Excerpt: Serial sections of a FFPE secondary (colon) tumor biopsy were stained with the HSB2B clones or, as a negative control, no primary antibody (“neg control”). Antibody binding was detected with anti-mouse IgG HRP and developed using a DAB substrate to yield a brown stain. Nuclei were counterstained blue with Hematoxylin. Four corresponding biopsy areas (A-D) were imaged per biopsy for analysis. FIG. 4 (i) is a panel of images showing the magnitude of staining with each HSB2B mAb for one of the four biopsy areas acquired for each stained biopsy. […] Cellular architecture (middle row) was then defined using HALO image analysis software (left hand color key, TIL=tumor infiltrating lymphocytes), most importantly to define the location of the tumor cells. […] (ii) Dot plot/bar chart showing the cytoplasmic staining levels (Mean Cytoplasmic OD) for each of the tumor cells for the four different biopsy areas. The dots represent cytoplasmic staining intensities for individual cells. Medians and interquartile ranges are plotted. (Mann Whitney) statistical comparisons of staining intensity were performed between cells from HSB2B stained tissue and negative (neg) control tissue for each of the four areas of biopsy. ****p<0.001.
The present anti-BC12/BIM antibodies are labelled “HSB2B” and a clone number (see Table A); “HSBXB” is an antibody against Bc1-x1/Bim and “HSMCB” is an antibody against MCL-1/BIM. […] FIG. 5 (ii) is cytoplasmic staining levels of individual cells from three different biopsy areas were combined and plotted as dot/bar graphs. The dots represent cytoplasmic staining intensities for individual cells. Medians and interquartile ranges are plotted. (Mann Whitney) statistical comparisons of staining intensity were performed between cells from HSA stained tissue and negative (neg) control tissue. **** p<0.001. […] The acquisition of data following staining with different HSA classes is planned to be of clinical utility to determine the relative dependencies of different cancers on different Bc12 family members.

Sequence of Bc12:Bim heterodimeric complex (P10415 whole entry, the tested form may be a part): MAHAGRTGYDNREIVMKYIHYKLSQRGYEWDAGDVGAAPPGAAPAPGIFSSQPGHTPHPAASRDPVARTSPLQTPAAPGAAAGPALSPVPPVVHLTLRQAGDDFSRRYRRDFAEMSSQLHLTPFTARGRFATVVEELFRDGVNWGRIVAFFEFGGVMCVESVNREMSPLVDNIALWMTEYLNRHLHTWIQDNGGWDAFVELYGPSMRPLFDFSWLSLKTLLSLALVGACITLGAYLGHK
Sequence of Bc12:Bim heterodimeric complex (O43521 142-161 partner limits assumed): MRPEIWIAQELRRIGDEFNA
T2 sequence (P02769 25-607 limits assumed): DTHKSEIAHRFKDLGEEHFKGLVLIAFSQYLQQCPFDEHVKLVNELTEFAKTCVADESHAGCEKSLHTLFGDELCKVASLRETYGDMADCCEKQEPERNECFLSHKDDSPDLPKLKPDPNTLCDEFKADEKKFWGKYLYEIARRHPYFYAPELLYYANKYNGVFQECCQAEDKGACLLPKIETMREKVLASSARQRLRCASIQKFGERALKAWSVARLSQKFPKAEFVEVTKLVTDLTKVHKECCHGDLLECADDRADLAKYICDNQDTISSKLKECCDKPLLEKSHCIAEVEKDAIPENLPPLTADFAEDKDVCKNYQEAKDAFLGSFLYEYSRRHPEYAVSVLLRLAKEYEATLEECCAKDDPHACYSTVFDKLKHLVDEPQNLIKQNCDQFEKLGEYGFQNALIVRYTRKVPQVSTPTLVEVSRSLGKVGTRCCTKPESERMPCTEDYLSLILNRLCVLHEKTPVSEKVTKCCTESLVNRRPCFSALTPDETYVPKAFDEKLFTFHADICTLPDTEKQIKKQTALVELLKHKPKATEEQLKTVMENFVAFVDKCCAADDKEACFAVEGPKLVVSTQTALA
T1 sequence (Q07817 1-209): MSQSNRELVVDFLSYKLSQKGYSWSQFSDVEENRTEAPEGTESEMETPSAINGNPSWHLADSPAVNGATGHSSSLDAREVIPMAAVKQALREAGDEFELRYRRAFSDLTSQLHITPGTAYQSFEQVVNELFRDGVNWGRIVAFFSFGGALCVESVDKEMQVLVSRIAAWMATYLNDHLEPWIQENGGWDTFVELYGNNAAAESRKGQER
Sequence of Bc12:BAX heterodimers (P10415 whole entry): as the sequence (P10415 whole entry, the tested form may be a part) above
Sequence of Bc12:BAX heterodimers (Q07812 whole entry partner): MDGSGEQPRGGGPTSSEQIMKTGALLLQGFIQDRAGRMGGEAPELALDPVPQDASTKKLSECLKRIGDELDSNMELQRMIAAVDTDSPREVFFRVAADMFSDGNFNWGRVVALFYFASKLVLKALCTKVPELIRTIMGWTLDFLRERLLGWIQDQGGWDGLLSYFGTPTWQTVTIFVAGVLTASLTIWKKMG
T3 sequence (P10415 1-218 limits assumed): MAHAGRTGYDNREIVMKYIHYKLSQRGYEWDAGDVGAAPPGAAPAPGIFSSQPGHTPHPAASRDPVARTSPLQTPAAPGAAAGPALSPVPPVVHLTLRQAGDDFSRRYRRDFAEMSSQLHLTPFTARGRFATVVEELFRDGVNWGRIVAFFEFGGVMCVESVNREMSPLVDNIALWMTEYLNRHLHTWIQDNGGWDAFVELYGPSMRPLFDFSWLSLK
Sequence of Bc12:BIM heterodimer (P10415 whole entry): as the sequence (P10415 whole entry, the tested form may be a part) above
Sequence of Bc12:BIM heterodimer (O43521 whole entry partner): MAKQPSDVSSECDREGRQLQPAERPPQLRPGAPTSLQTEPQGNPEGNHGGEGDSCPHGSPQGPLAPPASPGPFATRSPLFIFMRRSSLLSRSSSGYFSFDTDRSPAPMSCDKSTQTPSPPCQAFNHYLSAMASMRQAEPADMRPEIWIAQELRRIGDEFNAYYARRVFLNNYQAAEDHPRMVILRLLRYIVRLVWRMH
Sequence of ABT199 in a heterodimer with Bc12 (P10415 whole entry, one chain of several): as the sequence (P10415 whole entry, the tested form may be a part) above

| Molecule | binding result [1] | binding result [2] | binding result [6] | antigen reactivity of hybridoma supernatants (OD450) [5] | cytoplasmic staining level of individual cells versus negative control [7] | cross-reactivity with Bc12:BAX heterodimer [8] | cytoplasmic staining level (Mean Cytoplasmic OD) of tumor cells versus negative control [9] | reactivity by IHC with small cell lung cancer tissue [9] | cytoplasmic staining level of individual cells versus negative control [9] | hybridoma supernatant reactivity among a more exhaustive range of antigens [5] | also measured |
| --- | --- | --- | --- | --- | --- | --- | --- | --- | --- | --- | --- |
| 28A9: mouse IgG monoclonal antibody specific for the Bc12:Bim heterodimer; Hv SEQ ID NO: 17, Lv SEQ ID NO: 21 (antibody, V domains shown) VH: DVQLQESGPGLVKPSQSLSLTCSVTGYSITSGYYWNWIRQFPGNKLEWMGYISYDGSNNYNPSLKNRISITRDTSKNQFFLKLNSVTTEDTATYYCARDGTTVVATLAYWGQGTLVTVSA VL: QIVLTQSPAIMSASPGEKVTISCSASSSVSYMYWYQQKPGSSPKPWIYRTSNLASGVPARFSGSGSGTSYSLTISSMEAEDAATYYCQQYHSYPPTFGAGTKLELK | – | – | – | specific for the Bc12:Bim heterodimeric complex | – | – | – | – | – | – | physiological heterodimer reactivity (selectivity) [3]: restricted to Bc12:BIM; ABT199 cross-reactivity [4]: low |
| HSB2B clone 10C10F7 (antibody, V domains shown, Mouse IgG, tested as hybridoma supernatant; also called HSB2B mAb 10C10) VH: QVQLQQPGAELVKPGASVKLSCKASGYTFTSYWMHWVKQRPGRGLEWIGRIDPNSGGTKSNEKFNNKATLTVDKSSSTAYMQLSSLTSEDSAVYYCARWWDYDYFDYWGQGTTLTVSS VL: DIVMTQSPSSLTVTAGEKVTMSCKSSQSLLNSGNQKNYLTWYQQKPGQPPKLLIYWASTRESGVPDRFTGSGSGTDFTLTISNVQAEDLAVYYCQNDYNYPLTFGAGTKLELK | no binding | no binding | no binding | – | – | – | – | – | – | – | – |
| 10C10: mouse IgG monoclonal antibody specific for the Bc12:Bim heterodimer; Hv SEQ ID NO: 1, Lv SEQ ID NO: 5 (antibody, V domains shown) VH: QVQLQQPGAELVKPGASVKLSCKASGYTFTSYWMHWVKQRPGRGLEWIGRIDPNSGGTKSNEKFNNKATLTVDKSSSTAYMQLSSLTSEDSAVYYCARWWDYDYFDYWGQGTTLTVSS VL: DIVMTQSPSSLTVTAGEKVTMSCKSSQSLLNSGNQKNYLTWYQQKPGQPPKLLIYWASTRESGVPDRFTGSGSGTDFTLTISNVQAEDLAVYYCQNDYNYPLTFGAGTKLELK | – | – | – | specific for the Bc12:Bim heterodimeric complex | higher level of staining | cross-reactivity between Bc12:BIM and Bc12:BAX heterodimers | higher level of cytoplasmic stain | can react with small cell lung cancer tissue | higher level of staining | specific reactivity for the Bc12:Bim complex | – |
| 2H3: mouse IgG monoclonal antibody specific for the Bc12:Bim heterodimer; Hv SEQ ID NO: 25, Lv SEQ ID NO: 29 (antibody, V domains shown) VH: QVQLQQPGAELVKPGTSVKLSCQASGYTFASYWMHWVKQRPGRGLEWIGRIDPNSGGTKYNEKFKSKVTLTVDKPSSAAYMQLSSLTSEDSAVYYCARWWDYDYFDYWGQGTTLTVSS VL: DIVMTQSPSSLTVTAGEKVTMSCKSSQSLLNSGNQKRYLTWYQQKPGQPPKLLIYWASTRESGVPDRFTGSGSGTDFTLTISSVQAEDLAVYYCQNDYNYPLTFGSGTKLELK | – | – | – | specific for the Bc12:Bim heterodimeric complex | higher level of staining | cross-reactivity between Bc12:BIM and Bc12:BAX heterodimers | higher level of cytoplasmic stain | can react with small cell lung cancer tissue | higher level of staining | specific reactivity for the Bc12:Bim complex | – |

More lines, main results first:

| binding result [1] | binding result [2] | binding result [6] | Molecule | antigen reactivity of hybridoma supernatants (OD450) [5] | cytoplasmic staining level of individual cells versus negative control [7] | cross-reactivity with Bc12:BAX heterodimer [8] | cytoplasmic staining level (Mean Cytoplasmic OD) of tumor cells versus negative control [9] | reactivity by IHC with small cell lung cancer tissue [9] | cytoplasmic staining level of individual cells versus negative control [9] | hybridoma supernatant reactivity among a more exhaustive range of antigens [5] | also measured |
| --- | --- | --- | --- | --- | --- | --- | --- | --- | --- | --- | --- |
| no binding | no binding | – | HSB2B clone 28A9D11 (antibody, V domains shown, Mouse IgG, tested as hybridoma supernatant) VH: DVQLQESGPGLVKPSQSLSLTCSVTGYSITSGYYWNWIRQFPGNKLEWMGYISYDGSNNYNPSLKNRISITRDTSKNQFFLKLNSVTTEDTATYYCARDGTTVVATLAYWGQGTLVTVSA VL: QIVLTQSPAIMSASPGEKVTISCSASSSVSYMYWYQQKPGSSPKPWIYRTSNLASGVPARFSGSGSGTSYSLTISSMEAEDAATYYCQQYHSYPPTFGAGTKLELK | – | – | – | – | – | – | – | – |
| no binding | no binding | no binding | HSB2B clone 2H3G7 (antibody, V domains shown, Mouse IgG, tested as hybridoma supernatant; also called HSB2B mAb 2H3) VH: QVQLQQPGAELVKPGTSVKLSCQASGYTFASYWMHWVKQRPGRGLEWIGRIDPNSGGTKYNEKFKSKVTLTVDKPSSAAYMQLSSLTSEDSAVYYCARWWDYDYFDYWGQGTTLTVSS VL: DIVMTQSPSSLTVTAGEKVTMSCKSSQSLLNSGNQKRYLTWYQQKPGQPPKLLIYWASTRESGVPDRFTGSGSGTDFTLTISSVQAEDLAVYYCQNDYNYPLTFGSGTKLELK | – | – | – | – | – | – | – | – |
